Experimental data from US20180125973A1 (AstraZeneca / MedImmune, published 2018).

What was measured:
Human CD73 on cells = molecular target: T1, Human CD73 on cells (human, UniProt P21589 27-549); test: cell-based or functional assay
T1 sequence: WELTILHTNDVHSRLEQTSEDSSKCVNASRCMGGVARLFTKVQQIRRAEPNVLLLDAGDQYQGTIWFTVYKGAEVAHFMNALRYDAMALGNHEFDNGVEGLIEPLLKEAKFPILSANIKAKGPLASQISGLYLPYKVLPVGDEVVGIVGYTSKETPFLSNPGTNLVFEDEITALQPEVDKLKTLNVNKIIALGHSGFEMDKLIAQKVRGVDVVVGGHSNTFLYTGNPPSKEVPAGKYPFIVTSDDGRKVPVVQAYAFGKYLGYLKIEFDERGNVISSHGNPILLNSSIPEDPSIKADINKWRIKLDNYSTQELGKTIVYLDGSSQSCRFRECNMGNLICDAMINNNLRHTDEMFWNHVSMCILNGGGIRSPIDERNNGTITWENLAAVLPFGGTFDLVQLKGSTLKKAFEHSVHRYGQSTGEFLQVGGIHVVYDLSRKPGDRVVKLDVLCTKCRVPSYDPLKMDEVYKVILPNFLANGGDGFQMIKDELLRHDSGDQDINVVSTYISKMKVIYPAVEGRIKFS

Murine CD73 on cells = molecular target: T2, Murine CD73 on cells (murine, UniProt Q61503 29-551); test: cell-based or functional assay
T2 sequence (looked up): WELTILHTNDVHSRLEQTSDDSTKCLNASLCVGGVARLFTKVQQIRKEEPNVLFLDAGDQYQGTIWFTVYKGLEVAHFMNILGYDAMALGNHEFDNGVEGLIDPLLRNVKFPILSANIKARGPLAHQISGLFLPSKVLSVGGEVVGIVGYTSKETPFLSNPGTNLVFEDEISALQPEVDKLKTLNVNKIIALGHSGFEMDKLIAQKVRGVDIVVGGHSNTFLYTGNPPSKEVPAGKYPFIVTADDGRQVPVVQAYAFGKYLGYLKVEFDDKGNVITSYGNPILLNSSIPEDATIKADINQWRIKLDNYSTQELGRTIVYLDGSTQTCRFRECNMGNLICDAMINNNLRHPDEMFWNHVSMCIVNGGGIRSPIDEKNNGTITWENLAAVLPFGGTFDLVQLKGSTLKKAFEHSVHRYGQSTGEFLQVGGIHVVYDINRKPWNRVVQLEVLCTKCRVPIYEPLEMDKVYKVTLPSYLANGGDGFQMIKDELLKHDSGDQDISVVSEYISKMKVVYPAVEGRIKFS

B1: MEDI9447 (antibody, human IgG1, lambda, V domains shown)
VH: EVQLLESGGGLVQPGGSLRLSCAASGFTFSSYAYSWVRQAPGKGLEWVSAISGSGGRTYYADSVKGRFTISRDNSKNTLYLQMNSLRAEDTAVYYCARLGYGRVDEWGRGTLVTVSS
VL: QSVLTQPPSASGTPGQRVTISCSGSLSNIGRNPVNWYQQLPGTAPKLLIYLDNLRLSGVPDRFSGSKSGTSASLAISGLQSEDEADYYCATWDDSHPGWTFGGGTKLTVLG
With B1 the “Antibody-mediated internalization of cytotoxic FabZAP reagent into MDA-MB-231 cells, EC50” value (Human CD73 on cells) was 0.0035 nM and the “Antibody-mediated internalization of cytotoxic FabZAP reagent into 4T1 cells, EC50” value (Murine CD73 on cells) was 0.0185 nM.
